# Measurements reported in patent US20200317768A1 (published 2020).
# T1: cynomolgus monkey FcγRIIa3 extracellular domain with C-terminal His-tag (cynomolgus monkey)
# T1 construct: Expressed in FreeStyle 293 cells and purified; also called cyno FcγRIIa3; cynoFcgRIIa3; not shown: C-terminal His-tag
# T1 chain: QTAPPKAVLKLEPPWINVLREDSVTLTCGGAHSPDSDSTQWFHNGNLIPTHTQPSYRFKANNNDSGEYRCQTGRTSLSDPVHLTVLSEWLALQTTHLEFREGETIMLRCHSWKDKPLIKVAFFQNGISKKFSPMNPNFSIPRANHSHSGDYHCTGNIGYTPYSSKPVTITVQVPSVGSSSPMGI
# T2: cynomolgus monkey FcγRIIIaS extracellular domain with C-terminal His-tag (cynomolgus monkey, UniProt Q8SPW2 21-206 at identity 1.00))
# T2 construct: Expressed in FreeStyle 293 cells and purified; also called cyno FcγRIIIaS; cynoFcγRIIIaS; not shown: C-terminal His-tag
# T2 chain: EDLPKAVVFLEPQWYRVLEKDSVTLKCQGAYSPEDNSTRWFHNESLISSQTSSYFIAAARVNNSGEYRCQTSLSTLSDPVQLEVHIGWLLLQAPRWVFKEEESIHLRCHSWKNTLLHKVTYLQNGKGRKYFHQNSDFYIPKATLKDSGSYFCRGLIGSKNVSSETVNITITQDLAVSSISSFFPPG
# T3: human FcγRIIaR extracellular domain with C-terminal His-tag (human, UniProt P12318 34-217)
# T3 construct: Expressed in FreeStyle 293 cells and purified; also called human FcγRIIa (type R); FcgRIIaR; not shown: C-terminal His-tag
# T3 chain: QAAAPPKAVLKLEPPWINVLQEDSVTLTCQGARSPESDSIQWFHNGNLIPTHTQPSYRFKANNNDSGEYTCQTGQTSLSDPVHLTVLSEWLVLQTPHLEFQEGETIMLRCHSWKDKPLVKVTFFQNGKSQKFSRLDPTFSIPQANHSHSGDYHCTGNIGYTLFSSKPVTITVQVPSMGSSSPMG
# T4: human FcγRIIb extracellular domain with C-terminal His-tag (human, UniProt P31994 43-217)
# T4 construct: Expressed in FreeStyle 293 cells and purified; also called humanFcgRIIb; not shown: C-terminal His-tag
# T4 sequence: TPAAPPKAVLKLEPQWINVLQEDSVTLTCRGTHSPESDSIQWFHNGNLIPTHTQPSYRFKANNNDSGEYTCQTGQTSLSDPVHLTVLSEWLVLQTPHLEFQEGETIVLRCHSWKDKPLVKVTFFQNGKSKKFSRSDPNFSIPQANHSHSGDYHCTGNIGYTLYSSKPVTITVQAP
# Key:
# Assay in all cases: SPR (Biacore), antibody captured on chip, FcgR extracellular domain as analyte, 25 C
# [1] = target: T1, cynomolgus monkey FcγRIIa3 …
# Protocol: (§1) The kinetic analysis of interactions between these antibodies and FcγR was carried out using BIACORE® T200 or BIACORE® 4000 (GE Healthcare). HBS-EP+ (GE Healthcare) was used as the running buffer, and the measurement temperature was set to 25° C. A chip produced by immobilizing Protein A. Protein A/G or mouse anti-human IgG kappa light chain (BD Biosciences) onto a Series S Sensor Chip CM4 or CM5 (GE Healthcare) by the amine-coupling method was used. […] After the measurement, the antibody captured on the chip was washed off by allowing reaction with 10 mM glycine-HCl, pH1.5 and 25 mM NaOH so that the chip was regenerated and used repeatedly. The sensorgrams obtained as measurement results were analyzed by the 1:1 Langmuir binding model using the BIACORE® Evaluation Software to calculate the binding rate constant ka (L/mol/s) and dissociation rate constant kd (l/s), and the dissociation constant KD (mol/L) was calculated from these values. […] Regarding such interactions, KD values were calculated using the following 1:1 binding model described in BIACORE® T100 Software Handbook BR1006-48 Edition AE.
# (§2) The resultant variants were expressed using M103202L889-SK1 as light chain and their affinity to human and cynoFcγRs were evaluated (Table 20).
# [2] = target: T2, cynomolgus monkey FcγRIIIaS …
# Protocol: as §1, §2
# [3] = target: T3, human FcγRIIaR extracellular domain …
# Protocol: as §1, §2
# [4] = target: T4, human FcγRIIb extracellular domain with …
# Protocol: as §1, §2
# [5] = target: T5, human FcγRIIIaV extracellular domain with C-terminal His-tag (human, UniProt P08637 17-208)
# T5 construct: Expressed in FreeStyle 293 cells and purified; also called FcgRIIIaV; not shown: C-terminal His-tag
# Protocol: as §1, §2
# T5 sequence (P08637 17-208 F176V): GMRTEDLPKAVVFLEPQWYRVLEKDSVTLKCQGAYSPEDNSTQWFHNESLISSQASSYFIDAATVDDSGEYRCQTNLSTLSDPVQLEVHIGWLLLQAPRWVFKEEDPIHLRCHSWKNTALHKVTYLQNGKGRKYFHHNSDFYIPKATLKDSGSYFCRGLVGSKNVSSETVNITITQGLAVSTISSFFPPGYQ
Binder,Kd [1] [µM],Kd [2] [µM],Kd [3] [µM],Kd [4] [µM],Kd [5] [µM]
"MS_M103205H795-SG1/M103202L889-SK1 (antibody, human IgG1, kappa, Anti-latent myostatin IgG; also called MS1032LO06-SG1) heavy: not shown light: DIVMTQSPATLSLSPGERATLSCTSSQSVYHANWLSWFQQKPGQPPKLLIYWASTLAYGVPSRFSGSGSGTDFTLTISSLQPEDAATYYCAGGYGGGRYAFGQGTKVEIKRTVAAPSVFIFPPSDEQLKSGTASVVCLLNNFYPREAKVQWKVDNALQSGNSQESVTEQDSKDSTYSLSSTLTLSKADYEKHKVYACEVTHQGLSSPVTKSFNRGEC",17,0.36,1.1,4.6,0.81
"M103205H795-MY170 / M103202L889-SK1 (antibody, human IgG1, kappa, Position 396 variant derived from MY052, expressed with M103202L889-SK1 as light chain) heavy: QVTLKESGPVLVKPTETLTLTCTVSGIDLSHDDISWVRQAPGKGLEWVGIISYAGSTYYASWAKGRLTISKDTSKNQVVLTMTNMDPVDTATYYCARGVPAYSHGGDLWGQGTLVTVSSASTKGPSVFPLAPSSKSTSGGTAALGCLVKDYFPEPVTVSWNSGALTSGVHTFPAVLQSSGLYSLSSVVTVPSSSLGTQTYICNVNHKPSNTKVDKKVEPKSCDKTHTCPPCPAPELLNGPSVFLFPPKPKDTLMISRTPEVTCVVVDVSEEDPEVKFNWYVDGVEVHNAKTKPREEQYNSTYRVVSVLTVLHQDWLNGKEYKCKVSNKALPAPIEKTISKAKGQPREPQVYTLPPSREEMTKNQVSLTCLVKGFYPSDIAVEWESNGQPENNYKTTPEVLDSDGSFFLYSKLTVDKSRWQQGNVFSCSVMHEALHNHYTQKSLSLSP light: DIVMTQSPATLSLSPGERATLSCTSSQSVYHANWLSWFQQKPGQPPKLLIYWASTLAYGVPSRFSGSGSGTDFTLTISSLQPEDAATYYCAGGYGGGRYAFGQGTKVEIKRTVAAPSVFIFPPSDEQLKSGTASVVCLLNNFYPREAKVQWKVDNALQSGNSQESVTEQDSKDSTYSLSSTLTLSKADYEKHKVYACEVTHQGLSSPVTKSFNRGEC",12,2.9,2.5,1.6,6.3
"M103205H795-MY171 / M103202L889-SK1 (antibody, human IgG1, kappa, Position 396 variant derived from MY052, expressed with M103202L889-SK1 as light chain) heavy: QVTLKESGPVLVKPTETLTLTCTVSGIDLSHDDISWVRQAPGKGLEWVGIISYAGSTYYASWAKGRLTISKDTSKNQVVLTMTNMDPVDTATYYCARGVPAYSHGGDLWGQGTLVTVSSASTKGPSVFPLAPSSKSTSGGTAALGCLVKDYFPEPVTVSWNSGALTSGVHTFPAVLQSSGLYSLSSVVTVPSSSLGTQTYICNVNHKPSNTKVDKKVEPKSCDKTHTCPPCPAPELLNGPSVFLFPPKPKDTLMISRTPEVTCVVVDVSEEDPEVKFNWYVDGVEVHNAKTKPREEQYNSTYRVVSVLTVLHQDWLNGKEYKCKVSNKALPAPIEKTISKAKGQPREPQVYTLPPSREEMTKNQVSLTCLVKGFYPSDIAVEWESNGQPENNYKTTPFVLDSDGSFFLYSKLTVDKSRWQQGNVFSCSVMHEALHNHYTQKSLSLSP light: DIVMTQSPATLSLSPGERATLSCTSSQSVYHANWLSWFQQKPGQPPKLLIYWASTLAYGVPSRFSGSGSGTDFTLTISSLQPEDAATYYCAGGYGGGRYAFGQGTKVEIKRTVAAPSVFIFPPSDEQLKSGTASVVCLLNNFYPREAKVQWKVDNALQSGNSQESVTEQDSKDSTYSLSSTLTLSKADYEKHKVYACEVTHQGLSSPVTKSFNRGEC",92,3.5,2.1,12,5.9

# Stronger by Kd [1], values ahead:
Kd [1] [µM],Kd [2] [µM],Kd [3] [µM],Kd [4] [µM],Kd [5] [µM],Binder
3.9,1.5,1.4,0.72,1.5,"M103205H795-MY052 / M103202L889-SK1 (antibody, human IgG1, kappa, Fc variant of M103205H795-SG1, expressed with M103202L889-SK1 as light chain; parent of the position 396 variants) heavy: QVTLKESGPVLVKPTETLTLTCTVSGIDLSHDDISWVRQAPGKGLEWVGIISYAGSTYYASWAKGRLTISKDTSKNQVVLTMTNMDPVDTATYYCARGVPAYSHGGDLWGQGTLVTVSSASTKGPSVFPLAPSSKSTSGGTAALGCLVKDYFPEPVTVSWNSGALTSGVHTFPAVLQSSGLYSLSSVVTVPSSSLGTQTYICNVNHKPSNTKVDKKVEPKSCDKTHTCPPCPAPELLNGPSVFLFPPKPKDTLMISRTPEVTCVVVDVSEEDPEVKFNWYVDGVEVHNAKTKPREEQYNSTYRVVSVLTVLHQDWLNGKEYKCKVSNKALPAPIEKTISKAKGQPREPQVYTLPPSREEMTKNQVSLTCLVKGFYPSDIAVEWESNGQPENNYKTTPMVLDSDGSFFLYSKLTVDKSRWQQGNVFSCSVMHEALHNHYTQKSLSLSP light: DIVMTQSPATLSLSPGERATLSCTSSQSVYHANWLSWFQQKPGQPPKLLIYWASTLAYGVPSRFSGSGSGTDFTLTISSLQPEDAATYYCAGGYGGGRYAFGQGTKVEIKRTVAAPSVFIFPPSDEQLKSGTASVVCLLNNFYPREAKVQWKVDNALQSGNSQESVTEQDSKDSTYSLSSTLTLSKADYEKHKVYACEVTHQGLSSPVTKSFNRGEC"
9.9,3.5,2.5,1.3,6.2,"M103205H795-MY169 / M103202L889-SK1 (antibody, human IgG1, kappa, Position 396 variant derived from MY052, expressed with M103202L889-SK1 as light chain) heavy: QVTLKESGPVLVKPTETLTLTCTVSGIDLSHDDISWVRQAPGKGLEWVGIISYAGSTYYASWAKGRLTISKDTSKNQVVLTMTNMDPVDTATYYCARGVPAYSHGGDLWGQGTLVTVSSASTKGPSVFPLAPSSKSTSGGTAALGCLVKDYFPEPVTVSWNSGALTSGVHTFPAVLQSSGLYSLSSVVTVPSSSLGTQTYICNVNHKPSNTKVDKKVEPKSCDKTHTCPPCPAPELLNGPSVFLFPPKPKDTLMISRTPEVTCVVVDVSEEDPEVKFNWYVDGVEVHNAKTKPREEQYNSTYRVVSVLTVLHQDWLNGKEYKCKVSNKALPAPIEKTISKAKGQPREPQVYTLPPSREEMTKNQVSLTCLVKGFYPSDIAVEWESNGQPENNYKTTPDVLDSDGSFFLYSKLTVDKSRWQQGNVFSCSVMHEALHNHYTQKSLSLSP light: DIVMTQSPATLSLSPGERATLSCTSSQSVYHANWLSWFQQKPGQPPKLLIYWASTLAYGVPSRFSGSGSGTDFTLTISSLQPEDAATYYCAGGYGGGRYAFGQGTKVEIKRTVAAPSVFIFPPSDEQLKSGTASVVCLLNNFYPREAKVQWKVDNALQSGNSQESVTEQDSKDSTYSLSSTLTLSKADYEKHKVYACEVTHQGLSSPVTKSFNRGEC"
10,4.5,2.3,1.7,8.1,"M103205H795-MY168 / M103202L889-SK1 (antibody, human IgG1, kappa, Position 396 variant derived from MY052, expressed with M103202L889-SK1 as light chain) heavy: QVTLKESGPVLVKPTETLTLTCTVSGIDLSHDDISWVRQAPGKGLEWVGIISYAGSTYYASWAKGRLTISKDTSKNQVVLTMTNMDPVDTATYYCARGVPAYSHGGDLWGQGTLVTVSSASTKGPSVFPLAPSSKSTSGGTAALGCLVKDYFPEPVTVSWNSGALTSGVHTFPAVLQSSGLYSLSSVVTVPSSSLGTQTYICNVNHKPSNTKVDKKVEPKSCDKTHTCPPCPAPELLNGPSVFLFPPKPKDTLMISRTPEVTCVVVDVSEEDPEVKFNWYVDGVEVHNAKTKPREEQYNSTYRVVSVLTVLHQDWLNGKEYKCKVSNKALPAPIEKTISKAKGQPREPQVYTLPPSREEMTKNQVSLTCLVKGFYPSDIAVEWESNGQPENNYKTTPAVLDSDGSFFLYSKLTVDKSRWQQGNVFSCSVMHEALHNHYTQKSLSLSP light: DIVMTQSPATLSLSPGERATLSCTSSQSVYHANWLSWFQQKPGQPPKLLIYWASTLAYGVPSRFSGSGSGTDFTLTISSLQPEDAATYYCAGGYGGGRYAFGQGTKVEIKRTVAAPSVFIFPPSDEQLKSGTASVVCLLNNFYPREAKVQWKVDNALQSGNSQESVTEQDSKDSTYSLSSTLTLSKADYEKHKVYACEVTHQGLSSPVTKSFNRGEC"
